Measured values taken from US20160272683A1 (Novo Nordisk, published 2016).
Numbered stars: 1 amine (or outer) side, 2 acyl side, 3 side chain; on linkers, the order of the positions; unused ones are H or OH. * marks the point of attachment. C20 diacid = O=C(O)CCCCCCCCCCCCCCCCCCC(=O)*; C18 diacid = O=C(O)CCCCCCCCCCCCCCCCC(=O)*; C16 diacid = O=C(O)CCCCCCCCCCCCCCC(=O)*; γGlu = O=C(O)[C@H](CCC(=O)[*:2])N[*:1]

What was measured:
[1] = target: T1, human amylin 3(a) receptor (human calcitonin receptor co-expressed with RAMP-3) (human, UniProt P30988 25-474; O60896 24-148, limits assumed); assay: cell-based or functional assay
T1 sequence (looked up) 1: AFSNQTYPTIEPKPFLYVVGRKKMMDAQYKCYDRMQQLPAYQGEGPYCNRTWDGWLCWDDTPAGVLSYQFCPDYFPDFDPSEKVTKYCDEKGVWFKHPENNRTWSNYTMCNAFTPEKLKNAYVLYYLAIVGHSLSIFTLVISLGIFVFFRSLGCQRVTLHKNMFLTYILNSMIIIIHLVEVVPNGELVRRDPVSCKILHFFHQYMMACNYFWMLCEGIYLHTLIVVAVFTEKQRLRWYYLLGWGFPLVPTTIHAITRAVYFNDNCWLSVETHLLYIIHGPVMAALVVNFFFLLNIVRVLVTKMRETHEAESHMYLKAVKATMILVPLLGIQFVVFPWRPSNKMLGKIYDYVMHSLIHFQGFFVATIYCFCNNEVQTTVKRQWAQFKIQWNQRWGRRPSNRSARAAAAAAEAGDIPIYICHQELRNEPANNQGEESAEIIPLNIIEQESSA
T1 sequence (looked up) 2: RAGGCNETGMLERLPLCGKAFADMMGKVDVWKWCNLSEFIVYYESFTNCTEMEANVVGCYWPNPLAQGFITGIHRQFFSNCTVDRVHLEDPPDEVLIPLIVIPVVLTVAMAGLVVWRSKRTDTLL

[2] = target: T2, human calcitonin receptor (human, UniProt P30988 25-474); assay: cell-based or functional assay
T2 sequence (looked up): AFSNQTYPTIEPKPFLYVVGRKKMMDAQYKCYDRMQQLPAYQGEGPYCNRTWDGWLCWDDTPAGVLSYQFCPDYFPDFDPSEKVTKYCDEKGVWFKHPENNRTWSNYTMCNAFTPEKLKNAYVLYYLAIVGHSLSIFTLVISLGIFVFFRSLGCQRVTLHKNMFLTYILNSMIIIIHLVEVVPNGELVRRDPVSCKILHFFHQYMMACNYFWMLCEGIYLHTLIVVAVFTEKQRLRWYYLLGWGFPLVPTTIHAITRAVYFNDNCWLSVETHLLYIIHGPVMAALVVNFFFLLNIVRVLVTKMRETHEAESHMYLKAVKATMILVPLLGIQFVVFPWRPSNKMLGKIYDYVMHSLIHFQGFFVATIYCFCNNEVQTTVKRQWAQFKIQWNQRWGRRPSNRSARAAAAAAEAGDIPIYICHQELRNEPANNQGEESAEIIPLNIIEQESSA

Row | Binder | hAmylin-R funct. EC50 (pM) [1] | hCTR funct. EC50 (pM) [2]
1 | {C18 diacid}-EAPPLSTAVLGRLSAELHELATLPRTETGPESP-NH2 (SMILES CC(C)C[C@H](NC(=O)[C@H](CCC(=O)O)NC(=O)[C@H](Cc1c[nH]cn1)NC(=O)[C@H](CC(C)C)NC(=O)[C@H](CCC(=O)O)NC(=O)[C@H](C)NC(=O)[C@H](CO)NC(=O)[C@H](CC(C)C)NC(=O)[C@H](CCCNC(=N)N)NC(=O)CNC(=O)[C@H](CC(C)C)NC(=O)[C@@H](NC(=O)[C@H](C)NC(=O)[C@@H](NC(=O)[C@H](CO)NC(=O)[C@H](CC(C)C)NC(=O)[C@@H]1CCCN1C(=O)[C@@H]1CCCN1C(=O)[C@H](C)NC(=O)[C@H](CCC(=O)O)NC(=O)CCCCCCCCCCCCCCCCC(=O)O)[C@@H](C)O)C(C)C)C(=O)N[C@@H](C)C(=O)N[C@H](C(=O)N[C@@H](CC(C)C)C(=O)N1CCC[C@H]1C(=O)N[C@@H](CCCNC(=N)N)C(=O)N[C@H](C(=O)N[C@@H](CCC(=O)O)C(=O)N[C@H](C(=O)NCC(=O)N1CCC[C@H]1C(=O)N[C@@H](CCC(=O)O)C(=O)N[C@@H](CO)C(=O)N1CCC[C@H]1C(N)=O)[C@@H](C)O)[C@@H](C)O)[C@@H](C)O) [[N-terminal(C18 diacid), 3P, 4P, 9V]mimylin] | 12 pM | 6 pM
2 | {C18 diacid-γGlu}-ASELSTAALGRLSAELHELATLPRTETGSPSP-NH2 (SMILES CC(C)C[C@H](NC(=O)[C@H](C)NC(=O)[C@H](C)NC(=O)[C@@H](NC(=O)[C@H](CO)NC(=O)[C@H](CC(C)C)NC(=O)[C@H](CCC(=O)O)NC(=O)[C@H](CO)NC(=O)[C@H](C)NC(=O)CC[C@H](NC(=O)CCCCCCCCCCCCCCCCC(=O)O)C(=O)O)[C@@H](C)O)C(=O)NCC(=O)N[C@@H](CCCNC(=N)N)C(=O)N[C@@H](CC(C)C)C(=O)N[C@@H](CO)C(=O)N[C@@H](C)C(=O)N[C@@H](CCC(=O)O)C(=O)N[C@@H](CC(C)C)C(=O)N[C@@H](Cc1c[nH]cn1)C(=O)N[C@@H](CCC(=O)O)C(=O)N[C@@H](CC(C)C)C(=O)N[C@@H](C)C(=O)N[C@H](C(=O)N[C@@H](CC(C)C)C(=O)N1CCC[C@H]1C(=O)N[C@@H](CCCNC(=N)N)C(=O)N[C@H](C(=O)N[C@@H](CCC(=O)O)C(=O)N[C@H](C(=O)NCC(=O)N[C@@H](CO)C(=O)N1CCC[C@H]1C(=O)N[C@@H](CO)C(=O)N1CCC[C@H]1C(N)=O)[C@@H](C)O)[C@@H](C)O)[C@@H](C)O) [[N-terminal(C18 diacid-gGlu), des1, 30S, 31P]mimylin] | 13 pM | 8 pM
3 | {C18 diacid}-EASELSTAVLGKLSAELHELATLPKTETGPESP-NH2 (SMILES CC(C)C[C@H](NC(=O)[C@H](CCC(=O)O)NC(=O)[C@H](Cc1c[nH]cn1)NC(=O)[C@H](CC(C)C)NC(=O)[C@H](CCC(=O)O)NC(=O)[C@H](C)NC(=O)[C@H](CO)NC(=O)[C@H](CC(C)C)NC(=O)[C@H](CCCCN)NC(=O)CNC(=O)[C@H](CC(C)C)NC(=O)[C@@H](NC(=O)[C@H](C)NC(=O)[C@@H](NC(=O)[C@H](CO)NC(=O)[C@H](CC(C)C)NC(=O)[C@H](CCC(=O)O)NC(=O)[C@H](CO)NC(=O)[C@H](C)NC(=O)[C@H](CCC(=O)O)NC(=O)CCCCCCCCCCCCCCCCC(=O)O)[C@@H](C)O)C(C)C)C(=O)N[C@@H](C)C(=O)N[C@H](C(=O)N[C@@H](CC(C)C)C(=O)N1CCC[C@H]1C(=O)N[C@@H](CCCCN)C(=O)N[C@H](C(=O)N[C@@H](CCC(=O)O)C(=O)N[C@H](C(=O)NCC(=O)N1CCC[C@H]1C(=O)N[C@@H](CCC(=O)O)C(=O)N[C@@H](CO)C(=O)N1CCC[C@H]1C(N)=O)[C@@H](C)O)[C@@H](C)O)[C@@H](C)O) [[N-terminal(C18 diacid), 9V, 12K, 25K]mimylin] | 16 pM | 8 pM
4 | {C18 diacid}-EASELSTAVLGRLSAELAELATLPRTETGPESP-NH2 (SMILES CC(C)C[C@H](NC(=O)[C@H](CCC(=O)O)NC(=O)[C@H](C)NC(=O)[C@H](CO)NC(=O)[C@H](CC(C)C)NC(=O)[C@H](CCCNC(=N)N)NC(=O)CNC(=O)[C@H](CC(C)C)NC(=O)[C@@H](NC(=O)[C@H](C)NC(=O)[C@@H](NC(=O)[C@H](CO)NC(=O)[C@H](CC(C)C)NC(=O)[C@H](CCC(=O)O)NC(=O)[C@H](CO)NC(=O)[C@H](C)NC(=O)[C@H](CCC(=O)O)NC(=O)CCCCCCCCCCCCCCCCC(=O)O)[C@@H](C)O)C(C)C)C(=O)N[C@@H](C)C(=O)N[C@@H](CCC(=O)O)C(=O)N[C@@H](CC(C)C)C(=O)N[C@@H](C)C(=O)N[C@H](C(=O)N[C@@H](CC(C)C)C(=O)N1CCC[C@H]1C(=O)N[C@@H](CCCNC(=N)N)C(=O)N[C@H](C(=O)N[C@@H](CCC(=O)O)C(=O)N[C@H](C(=O)NCC(=O)N1CCC[C@H]1C(=O)N[C@@H](CCC(=O)O)C(=O)N[C@@H](CO)C(=O)N1CCC[C@H]1C(N)=O)[C@@H](C)O)[C@@H](C)O)[C@@H](C)O) [[N-terminal(C18 diacid), 9V, 18A]mimylin] | 8 pM | 7 pM
5 | {C20 diacid-γGlu}-EASELSTAALGRLSAELHELATYPRTETGSGSP-NH2 (SMILES CC(C)C[C@H](NC(=O)[C@H](C)NC(=O)[C@H](C)NC(=O)[C@@H](NC(=O)[C@H](CO)NC(=O)[C@H](CC(C)C)NC(=O)[C@H](CCC(=O)O)NC(=O)[C@H](CO)NC(=O)[C@H](C)NC(=O)[C@H](CCC(=O)O)NC(=O)CC[C@H](NC(=O)CCCCCCCCCCCCCCCCCCC(=O)O)C(=O)O)[C@@H](C)O)C(=O)NCC(=O)N[C@@H](CCCNC(=N)N)C(=O)N[C@@H](CC(C)C)C(=O)N[C@@H](CO)C(=O)N[C@@H](C)C(=O)N[C@@H](CCC(=O)O)C(=O)N[C@@H](CC(C)C)C(=O)N[C@@H](Cc1c[nH]cn1)C(=O)N[C@@H](CCC(=O)O)C(=O)N[C@@H](CC(C)C)C(=O)N[C@@H](C)C(=O)N[C@H](C(=O)N[C@@H](Cc1ccc(O)cc1)C(=O)N1CCC[C@H]1C(=O)N[C@@H](CCCNC(=N)N)C(=O)N[C@H](C(=O)N[C@@H](CCC(=O)O)C(=O)N[C@H](C(=O)NCC(=O)N[C@@H](CO)C(=O)NCC(=O)N[C@@H](CO)C(=O)N1CCC[C@H]1C(N)=O)[C@@H](C)O)[C@@H](C)O)[C@@H](C)O) [[N-terminal(C20 diacid-gGlu), 23Y, 30S, 31G]mimylin] | 12 pM | 14 pM
6 | {C16 diacid}-EASELSTAALGRLSAELHELATLPRTETGPESP-NH2 [[N-terminal(C16 diacid)]mimylin] | 8 pM | 4 pM
7 | {C20 diacid-γGlu}-ASELSTAALGRLSAELHELATLPRTETGSGSP-NH2 [[N-terminal(C20 diacid-gGlu), des1, 30S, 31G]mimylin] | 13 pM | 14 pM
8 | {C18 diacid}-EASEVSTAVLGRLSAELHEVATLPRTETGPESP-NH2 (SMILES CC(C)C[C@H](NC(=O)[C@H](CCCNC(=N)N)NC(=O)CNC(=O)[C@H](CC(C)C)NC(=O)[C@@H](NC(=O)[C@H](C)NC(=O)[C@@H](NC(=O)[C@H](CO)NC(=O)[C@@H](NC(=O)[C@H](CCC(=O)O)NC(=O)[C@H](CO)NC(=O)[C@H](C)NC(=O)[C@H](CCC(=O)O)NC(=O)CCCCCCCCCCCCCCCCC(=O)O)C(C)C)[C@@H](C)O)C(C)C)C(=O)N[C@@H](CO)C(=O)N[C@@H](C)C(=O)N[C@@H](CCC(=O)O)C(=O)N[C@@H](CC(C)C)C(=O)N[C@@H](Cc1c[nH]cn1)C(=O)N[C@@H](CCC(=O)O)C(=O)N[C@H](C(=O)N[C@@H](C)C(=O)N[C@H](C(=O)N[C@@H](CC(C)C)C(=O)N1CCC[C@H]1C(=O)N[C@@H](CCCNC(=N)N)C(=O)N[C@H](C(=O)N[C@@H](CCC(=O)O)C(=O)N[C@H](C(=O)NCC(=O)N1CCC[C@H]1C(=O)N[C@@H](CCC(=O)O)C(=O)N[C@@H](CO)C(=O)N1CCC[C@H]1C(N)=O)[C@@H](C)O)[C@@H](C)O)[C@@H](C)O)C(C)C) [[N-terminal(C18 diacid), 5V, 9V, 20V]mimylin] | 23 pM | 54 pM
9 | {C18 diacid}-EASEISTAIIGRLSAELHELATLPRTETGPESP-NH2 (SMILES CC[C@H](C)[C@H](NC(=O)[C@H](C)NC(=O)[C@@H](NC(=O)[C@H](CO)NC(=O)[C@@H](NC(=O)[C@H](CCC(=O)O)NC(=O)[C@H](CO)NC(=O)[C@H](C)NC(=O)[C@H](CCC(=O)O)NC(=O)CCCCCCCCCCCCCCCCC(=O)O)[C@@H](C)CC)[C@@H](C)O)C(=O)N[C@H](C(=O)NCC(=O)N[C@@H](CCCNC(=N)N)C(=O)N[C@@H](CC(C)C)C(=O)N[C@@H](CO)C(=O)N[C@@H](C)C(=O)N[C@@H](CCC(=O)O)C(=O)N[C@@H](CC(C)C)C(=O)N[C@@H](Cc1c[nH]cn1)C(=O)N[C@@H](CCC(=O)O)C(=O)N[C@@H](CC(C)C)C(=O)N[C@@H](C)C(=O)N[C@H](C(=O)N[C@@H](CC(C)C)C(=O)N1CCC[C@H]1C(=O)N[C@@H](CCCNC(=N)N)C(=O)N[C@H](C(=O)N[C@@H](CCC(=O)O)C(=O)N[C@H](C(=O)NCC(=O)N1CCC[C@H]1C(=O)N[C@@H](CCC(=O)O)C(=O)N[C@@H](CO)C(=O)N1CCC[C@H]1C(N)=O)[C@@H](C)O)[C@@H](C)O)[C@@H](C)O)[C@@H](C)CC) [[N-terminal(C18 diacid), 5I, 9I, 10I]mimylin] | 10 pM | 5 pM
